Assay results taken from the domain aggregation screens of Martell et al. (2025).

test: soluble fraction after stress (log2 fold change); higher = more stays soluble; pooled small domains, quantitative proteomics; settings: stress: 50 degC
Method in brief: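 The stress applied to every library was 50°C. These custom libraries of small protein domains were pooled and measured at high throughput with quantitative proteomics as the read-out. Aggregation propensity is expressed as the base-two logarithm of the fold change in how much of each protein remains soluble. The higher the value, the more of that protein stays in solution.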

| Sequence | soluble fraction (log2) |
| --- | --- |
| HMDIADKLTKREFEIFIAIAMNKSRFDIANELGLSAKTVSNGLTVIKRKLNAVPSQFSAIAAKHGYIG | -2.66 |
| HMGKQIKEIVEEYYDSTSKNSPVGGSWKTSLDGVDLTSPNITIWTRTKIKYVDGSESIVTPQSL | -0.0357 |
| HMGSFISADEALAKALSHAGLDQSAIRELEMDSELDDDVPHYSIDFKSGNLEYEYEISATDGSVLKFEQD | 0.105 |
| HMGIKAADIVTNDIQFNTQAQFDKYKDLYPTLGWGNYDPNKTYTMQGFKNKLKPNELFTGTPNLKIEDT | 0.141 |
| HMRDLTARQQQILALIRQHIADTGFPPTRAEIAAQLGFRSPNAAEEHLKALARKGVIELASGASRGIRLK | -0.16 |
| HMSKEGLASLLEDINGLGAIRRKTLIDHFGSVAKIRGARPEEIAALPGMGRKIAEHILASLRED | -0.251 |
| HMTDVHFIDVPVSEGHPWIGLTVKDLNLPPGTLLVFLNHPGEKSTVPNGDTVLREGDVLVLGATAYAG | -0.0795 |
| HMIQKTHPALEIVKEYFSSQAASEFEAERFFNYYTSNGWLIGGKTKMKDWQAAARNWILNTAK | -0.199 |
| HMAITLEQFLSVNPHIRNNLYGNAVELVKDKDFSVLSDKLKASSKWANEPSLYKILSHYDEIIS | 0.063 |
| HMATINGIEKYLSSGLIPGIGPHTAKKLVEKFGLDTLDIMQYNPDRLTEVEGIGDKKAAKISEAFQEQK | 0.0735 |
| HMLLAPLRLGAAPDIKAQAPLATILARHNGEMEAKDLWQRFGGEIDAFYLQLKTEVAHGWIVEPEPA | -0.816 |
| HMVEEVDYGTFMRMIEEKNIGKVEVRAGEIVFTDKDEKQIYKTGAMEDATLTQRLYESGAEFSKDV | 0.0146 |
| HMTNSTGWSKSGGTQVTIREGETIYNLSRRYGVPAKSIMEANGIADATAVRAGQRISIPTYSY | 0.0505 |
| HMSTEEYDRGYEQGLEEAAKADDAWVANLIKIYSQNTPESMPETMKGRLDAFLYEQQRRAQSVPEM | 0.307 |
| HMREYVGLSPFNKEKTPSFYVNDEKGQFFDFSSGKNGDLITFLQETERLTFMEAVERLAAEAGLPMPA | -0.491 |
| HMEFEKYKYHYIFDDVLGLRIVWDRGKEHFSYFVNEELAEKSRKSDKDALEVMFYLEHKRWPEEGELENY | -0.687 |
| HMFDREKFIKLGQEFARVAFENVNKRATDRALKTAAKHYGLPSADELLARLGSSEIAARDVVAELYPNL | -0.34 |
| HMNNIYFSPVVEENNKGLRLDKFLAASFPEFSRSQLQRLILEGNVSNDDVVIADNSQKVRVGDSFQVIVPE | -0.0377 |
| HMTYLIKFDENGRRSDTYVAEEKTQEQVTELLEKGFVLITEEDYQLLVGNVDGKEYIRNADGTYSEYT | -0.0279 |

| Sequence | soluble fraction (log2) |
| --- | --- |
| HMSEFGENLKKLRTARDLTQQELGAKVGLSKAVVSKYENGLGYPTFDVLIRIAAYFGVTTDYLLGV | -0.442 |
| HMTDYKTNLQEFLQQDGEVEIEYKLLAEVGPSHARQFEVDVMMGDRVLGSGVGRNKKAAEQAAAKVALSKL | -0.124 |
| HMGVAAPMPGTITDVRVKVGDRVQPRTVVMMLEAMKMENEIFAGRAGVVSQVAVEKGASVNTGDLLISIDP | 0.129 |
| HMSPTSSRAAQARIRKMIESESPLKPISDSQLAARLGEEGISIARRTVAKYREQMNILPASQRRGV | -0.146 |
| HMLSSEQQQKLDSLSRKELEVAELVSHGATNKMIARTMNITERTVKAHLTAIFQKMNIPDRLSLAIFFRDL | -2.44 |
| HMATIGVGSKVTLTTYVDWVGNGLLKTRDFYFVSELNGKRAVLRADSMNGAIYAAVNIDNLRI | -2.56 |
| HMIPYQDPLPKGAEESLLSKYPGFEITGVHFVNDTNFIGYKVRLERGEDREEISLDVNGKFL | 0.0829 |
| HMGATYSQFLDQVDGGNVQKVTFSGDMRSGTNQISYTTRSGQSATITAPMDRDLINILRAKNVEIVQEEP | 0.026 |
| HMDFQTDVFISRFAELKKESGETNKDLQDVFELSLSALINYQTGKRIPDIAFLHKLAQHFGVSADYLLGLS | -0.549 |
| HMWGAYHDGQVVKFPKKVTVYVIDGQYKRPLANEFVLKFLNYKTSDIIIDKDGNLNNYKNGAVVEH | -2.69 |
| HMSAEAYLSFVKKENLRAAVVNYENNKEWLKDVPHERLLDLAVFAKVDMGEPGMSMKFNNWLLSR | -0.78 |
| HMTISIAEQIFEQLEREILSGAYPRGELLTETKLSEKLGVSRTPIREALRRLDQEHIIKMTTKGAFVLGI | -2.04 |
| HMHKTEIKIPSREDILAVLRQAQAPLTREQVFEHLKLTEDQIPIIEKRLNAMERDGQLMPNRKGMLLLSTK | 0.266 |
| HMLVSFGDHLKRYIYERAGIEEPFGEVPQEIYRDIAVDSFRETYTPKSMNPTSTKLPALVNNWLIQ | -0.746 |
| HMGELVIPPLRERTVVDAVAEAERLGFVVQVEPVASSLPEGRVLGQSPEPGTRARKSQVVVLQVSRG | -0.148 |
| HMTNYYTVTFKEGDTVLKEVSVHSGDGVPYAVAPKRDDIVGWSYNGNTYTTDLNTLKIKKEVTFTAVT | -0.222 |
| HMNVLLGISELSHATGVTPAQLRYWVSQGYIKNYGSNKKNKFSLETVFMVRSIKIFQNQGYTLSASAKRAA | 0.0163 |
| HMSSASETQYELALQAMRDGDNDAALRSLSTALASGFSDWQRIDEEPLLAALANDVRFQVLRSRWK | 0.0414 |
